Reference: patent US20180362629A1 (ZOETIS BELGIUM S A, published 2018)

What was measured:
recombinant canine β NGF [1] = target: T1, recombinant canine β NGF (canine, UniProt Q29074 110-229 (pig entry)); assay: cell-based or functional assay
T1 chain: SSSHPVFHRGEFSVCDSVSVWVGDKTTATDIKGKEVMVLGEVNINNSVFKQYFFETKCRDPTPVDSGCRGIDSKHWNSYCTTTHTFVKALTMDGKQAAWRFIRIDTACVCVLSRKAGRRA

recombinant canine β NGF [2] = target: T1, recombinant canine β NGF; assay: SPR (Biacore T100), antibody captured on goat anti-canine IgG, canine NGF injected
Description: Purified mouse/canine chimeric antibodies and caninized antibodies were analyzed for affinity to canine NGF using a Biacore T100 instrument. Goat anti Canine IgG (Southern Biotech) was immobilized at 5000-10000 RU on a CM5 chip using an amine coupling procedure according to the manufacturer's instructions (Biacore). […] The association rate was monitored for 5 min and the dissociation rate was monitored for 10-20 min. The chip surface was regenerated using 50-75 ul 10 mM glycine pH 1.5 at a flow rate of 50-100 ul/min. Data was analyzed using Biaevaluation T100 software version 2.0.2, software, GE Healthcare Life Sciences (Piscataway, N.J.). Overall affinity parameters established for mouse/canine chimeric antibodies is summarized in Table 22 and for caninized antibodies in Table 23. […] The overall KDs of the mouse/canine anti-NGF mAbs range from about 1300 pM to 1.6 pM. […] The overall KDs of the caninized anti-NGF mAbs range from about 42 pM to 1.2 pM.

recombinant canine β NGF [3] = target: T2, recombinant canine β NGF (canine, UniProt Q29074 110-229 (pig entry)); assay: cell-based or functional assay
T2 chain: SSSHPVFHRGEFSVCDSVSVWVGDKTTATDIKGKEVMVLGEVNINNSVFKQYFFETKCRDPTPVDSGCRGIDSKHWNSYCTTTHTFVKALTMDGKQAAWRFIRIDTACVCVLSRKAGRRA

biotinylated rat β NGF [4] = target: T3, biotinylated rat β NGF (rat, UniProt P25427 122-241, limits assumed, biotinylated); assay: capture ELISA; supernatant 625-fold
T3 construct: also called Biotinylated Rat NGF; rat NGF
T3 sequence (P25427 122-241 limits assumed): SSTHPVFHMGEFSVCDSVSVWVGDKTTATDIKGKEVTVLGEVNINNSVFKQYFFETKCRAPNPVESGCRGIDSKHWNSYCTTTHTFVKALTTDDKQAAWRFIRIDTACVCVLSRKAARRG
Description: (§1) The plates were washed three times with wash buffer. The plates were blocked with 200 μl of 2% milk and incubated for 1 hour at room temperature. The plates were washed as above. […] The positive control was crude sera (diluted 1:500 with PBS) isolated from a β NGF immunized mouse and the negative control was hybridoma supernatant derived from a mouse immunized with an antigen other than NGF. The plates were washed and then 50 μl of biotinylated human or rat β NGF at 50 ng/ml was added and incubated for 1 hour at room temperature. The plates were washed. […] The plates were incubated for 30 minutes at room temperature. The plates were washed and then TMB substrate (Invitrogen, catalog #00-2023) was added. The reaction was stopped using 2N H₂SO₄ (VWR, catalog # BDH3500-1). The absorbance at 450 nm was read on a Spectromax 2E plate reader (Molecular Devices); these absorbance readings are shown in Tables 1 and 2. The numerical value indicates binding of mouse anti-NGF antibodies to biotinylated human or rat β NGF.

biotinylated human β NGF [5] = target: T4, biotinylated human β NGF (human, UniProt P01138 122-241, biotinylated); assay: capture ELISA; supernatant 625-fold
T4 construct: also called Biotinylated Human NGF; human NGF
T4 sequence (P01138 122-241 limits assumed): as the sequence (P25427 122-241 limits assumed) above, with T3S, V6I, M9R, T37M, A60D, E65D, T92M, D94G, A117V, G120A counted along it
Description: as §1

biotinylated rat β NGF [6] = target: T3, biotinylated rat β NGF; assay: capture ELISA; supernatant 5-fold
Description: as §1

biotinylated human β NGF [7] = target: T4, biotinylated human β NGF; assay: capture ELISA; supernatant 5-fold
Description: as §1

biotinylated rat β NGF [8] = target: T3, biotinylated rat β NGF; assay: capture ELISA; supernatant 125-fold
Description: as §1

biotinylated human β NGF [9] = target: T4, biotinylated human β NGF; assay: capture ELISA; supernatant 125-fold
Description: as §1

biotinylated rat β NGF [10] = target: T3, biotinylated rat β NGF; assay: capture ELISA; supernatant 25-fold
Description: as §1

biotinylated human β NGF [11] = target: T4, biotinylated human β NGF; assay: capture ELISA; supernatant 25-fold
Description: as §1

B1: Mu77 Canine IgG1/k Chimera (antibody, V domains shown)
VH: EVQLQQSGAELVKPGASVKLSCTASGFNIKDTYIYWVKQRPEQGLEWIGRIDPANGNTIYASKFQGKASITADTSSNTAYMQLSSLTSGDTAVYYCAGYGYYAYWGQGTTLTVSS
VL: DVVLTQTPLSLPVNIGDQASISCKSTKSLLNGDGFTYLDWYLQKPGQSPQLLIYLVSNRFSGVPDRFSGSGSGTDFTLKISRVEAEDLGVYYCFESNYLFTFGSGTKLEMKR
notes: also called PR-1290656; lot 1785699
Recombinant canine β NGF [1]
  IC50, canine NGF-induced TF-1 cell proliferation (70 pM canine NGF): 28 pM
Recombinant canine β NGF [2]
  Kd: 0.021 nM
  koff: 0.00019 s⁻¹

B2: PR-1254977 (antibody, mouse IgG1, V domains shown)
VH: EVQLQQSGAELVKPGASVKLSCTASGFNIKDTYIYWVKQRPEQGLEWIGRIDPANGNTIYASKFQGKASITADTSSNTAYMQLSSLTSGDTAVYYCAGYGYYAYWGQGTTLTVSS
VL: DVVLTQTPLSLPVNIGDQASISCKSTKSLLNGDGFTYLDWYLQKPGQSPQLLIYLVSNRFSGVPDRFSGSGSGTDFTLKISRVEAEDLGVYYCFESNYLFTFGSGTKLEMKR
notes: also called 21D4; ML129-21D4.4A11
Recombinant canine β NGF [3]
  PathHunter IC50 (441 pM canine NGF): < 1 nM
  SureFire cellular pERK IC50 (128 pM canine NGF): < 1 nM
Biotinylated rat β NGF [4]
  absorbance at 450 nm: 0.453
Biotinylated human β NGF [5]
  absorbance at 450 nm: 0.543
Biotinylated rat β NGF [6]
  absorbance at 450 nm: 0.787
Biotinylated human β NGF [7]
  absorbance at 450 nm: 1.15
Biotinylated rat β NGF [8]
  absorbance at 450 nm: 0.671
Biotinylated human β NGF [9]
  absorbance at 450 nm: 0.899
Biotinylated rat β NGF [10]
  absorbance at 450 nm: 0.76
Biotinylated human β NGF [11]
  absorbance at 450 nm: 1.04

B3: Mu73 Canine IgG1/k Chimera (antibody, V domains shown)
VH: QVQLQQPGAELVKPGASVKLSCKASGYTFTNYWMHWVKQRPGQGLEWIGRIDPYGGGTKHNEKFKRKATVTADKSSSTAYILLSSLTSEDSAVYYCTRSGYDYYFDVWGTGTTVTVSS
VL: DIQMTQSPASLSASVGETVTVTCRASENIYSFLAWHQQKQGKSPQLLVYNANTLAEGVPSRFSGSGSGTQFSLKINSLQPEDFGSYYCQHHFGTPFTFGSGTKLEIKR
notes: also called PR-1290654; lot 1785658
Recombinant canine β NGF [1]
  IC50, canine NGF-induced TF-1 cell proliferation (70 pM canine NGF): 8 pM
Recombinant canine β NGF [2]
  Kd: 0.014 nM
  koff: 9e-05 s⁻¹

B4: Mu82 Canine IgG1/k Chimera (antibody, V domains shown)
VH: QVQLKESGPGLVAPSQSLSITCTVSGFSLTGYNINWVRQPPGKGLEWLGMIWGYGDTDYNSALKSRLSISKDNSKSQVFLKMNSLQTDDTARYYCARDHYGGNDWYFDVWGTGTTVTVSS
VL: DIQMTQTTSSLSASLGDRVTITCRASQDITNYLNWYQQKPDGTVKLLIYYTSRLHSGVPSRFSGSGSGTDYSLTISNLDQEDIATYFCQQGKTLPRTFGGGTKLEIKR
notes: The exact junction was not checked; also called PR-1290658; lot 1785732
Recombinant canine β NGF [1]
  IC50, canine NGF-induced TF-1 cell proliferation (70 pM canine NGF): 7 pM
Recombinant canine β NGF [2]
  Kd: 0.0016 nM
  koff: 1.4e-05 s⁻¹
